Molecular target: T1, soluble recombinant human FGFR3c human-IgG chimeric protein (human, UniProt P22607 23-375)
T1 sequence (looked up): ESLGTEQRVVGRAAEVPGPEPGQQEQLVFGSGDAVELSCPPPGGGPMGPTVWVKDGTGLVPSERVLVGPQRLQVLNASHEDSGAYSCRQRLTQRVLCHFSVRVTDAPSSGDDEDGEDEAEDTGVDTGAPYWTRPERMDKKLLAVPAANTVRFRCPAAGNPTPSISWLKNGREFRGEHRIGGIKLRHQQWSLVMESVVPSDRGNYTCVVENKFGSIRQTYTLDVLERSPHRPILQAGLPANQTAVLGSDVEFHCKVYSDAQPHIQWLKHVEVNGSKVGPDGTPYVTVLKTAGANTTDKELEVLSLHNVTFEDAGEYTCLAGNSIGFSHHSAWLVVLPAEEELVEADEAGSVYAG
Assay: ligand and carbohydrate engagement

- binding result: binds
B1: recombinant human FGF18 (ligand, UniProt O76093 28-207, looked up)
chain: EENVDFRIHVENQTRARDDVSRKQLRLYQLYSRTSGKHIQVLGRRISARGEDGDKYAQLLVETDTFGSQVRIKGKETEFYLCMNRKGKLVGKPDGTSKECVFIEKVLENNYTALMSAKYSGWYVGFTKKGRPRKGPKTRENQQDVHFMKRYPKGQPELQKPFKYTTVTKRSRRIRPTHPA

— article PMC2900151 (Biochemistry, 2010)
